Like-named read-outs stand apart in the source and are kept apart here.
T1: full-length GluD2 (GluD2FL) (human, UniProt O43424 24-1007)
T1 sequence (looked up): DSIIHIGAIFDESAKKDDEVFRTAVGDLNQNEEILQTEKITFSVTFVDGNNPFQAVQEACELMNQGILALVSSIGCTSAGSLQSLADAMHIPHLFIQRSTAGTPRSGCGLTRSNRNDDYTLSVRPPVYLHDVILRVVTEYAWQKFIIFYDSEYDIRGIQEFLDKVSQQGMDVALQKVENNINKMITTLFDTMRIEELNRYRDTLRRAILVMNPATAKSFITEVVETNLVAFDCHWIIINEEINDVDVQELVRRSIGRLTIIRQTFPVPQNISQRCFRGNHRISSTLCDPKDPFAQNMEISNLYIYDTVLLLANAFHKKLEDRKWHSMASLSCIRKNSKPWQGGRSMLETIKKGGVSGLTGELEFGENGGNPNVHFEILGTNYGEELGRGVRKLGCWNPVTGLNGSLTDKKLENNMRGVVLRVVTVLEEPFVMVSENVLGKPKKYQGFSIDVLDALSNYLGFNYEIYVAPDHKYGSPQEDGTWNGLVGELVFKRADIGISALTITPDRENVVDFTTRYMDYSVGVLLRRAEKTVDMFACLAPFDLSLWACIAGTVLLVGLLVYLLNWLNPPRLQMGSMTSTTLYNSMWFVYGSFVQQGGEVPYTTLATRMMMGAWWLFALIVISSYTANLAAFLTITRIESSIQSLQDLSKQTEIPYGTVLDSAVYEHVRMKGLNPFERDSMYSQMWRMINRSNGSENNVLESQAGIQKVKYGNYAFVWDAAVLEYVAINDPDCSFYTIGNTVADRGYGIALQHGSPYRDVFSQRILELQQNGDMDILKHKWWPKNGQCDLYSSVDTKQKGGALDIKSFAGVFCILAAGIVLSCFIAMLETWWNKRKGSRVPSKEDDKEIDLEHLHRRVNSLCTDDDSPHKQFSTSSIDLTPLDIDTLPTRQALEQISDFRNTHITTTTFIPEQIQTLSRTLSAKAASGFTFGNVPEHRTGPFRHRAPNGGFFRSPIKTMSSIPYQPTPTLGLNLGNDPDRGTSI

B1: GluD2 amino-terminal domain (GluD2ATD) (domain or fragment, human)
chain: DSIIHIGAIFDESAKKDDEVFRTAVGDLNQNEEILQTEKITFSVTFVDGNNPFQAVQEACELMNQGILALVSSIGCTSAGSLQSLADAMHIPHLFIQRSTAGTPRSGCGLTRSNRNDDYTLSVRPPVYLHDVILRVVTEYAWQKFIIFYDSEYDIRGIQEFLDKVSQQGMDVALQKVENNINKMITTLFDTMRIEELNRYRDTLRRAILVMNPATAKSFITEVVETNLVAFDCHWIIINEEINDVDVQELVRRSIGRLTIIRQTFPVPQNISQRCFRGNHRISSTLCDPKDPFAQNMEISNLYIYDTVLLLANAFHKKLEDRKWHSMASLSCIRKNSKPWQGGRSMLETIKKGGVSGLTGELEFGENGGNPNVHFEILGTNYGEELGRGVRKLGCWNPVTGLNGSLTDKKLENNMRG
B2: full-length Cbln1 (Cbln1FL) (natural protein, human, UniProt P23435 22-193, looked up)
chain: QNETEPIVLEGKCLVVCDSNPTSDPTGTALGISVRSGSAKVAFSAIRSTNHEPSEMSNRTMIIYFDQVLVNIGNNFDSERSTFIAPRKGIYSFNFHVVKVYNRQTIQVSLMLNGWPVISAFAGDQDVTREAASNGVLIQMEKGDRAYLKLERGNLMGGWKYSTFSGFLVFPL
B3: mouse GluD1 amino-terminal domain (GluD1ATD) (domain or fragment)
chain: DSIIHIGAIFEENAAKDDRVFQLAVSDLSLNDDILQSEKITYSIKVIEANNPFQAVQEACDLMTQGILALVTSTGCASANALQSLTDAMHIPHLFVQRNPGGSPRTACHLNPSPDGEAYTLASRPPVRLNDVMLRLVTELRWQKFVMFYDSEYDIRGLQSFLDQASRLGLDVSLQKVDKNISHVFTSLFTTMKTEELNRYRDTLRRAILLLSPQGAHSFINEAVETNLASKDSHWVFVNEEISDPEILDLVHSALGRMTVVRQIFPSAKDNQKCMRNNHRISSLLCDPQEGYLQMLQISNLYLYDSVLMLANAFHRKLEDRKWHSMASLNCIRKSTKPWNGGRSMLDTIKKGHITGLTGVMEFREDSSNPYVQFEILGTTYSETFGKDMRKLATWDSEKGLNGSLQERPMGSRLQG

How the values were obtained:
crystal structure [1] = target: the molecule itself; assay: crystal structure
crystal structure [2] = target: the molecule itself; assay: crystal structure; remark: listed apart in the source
[3] = target: T1, full-length GluD2 (GluD2FL); assay: SPR

Binder | stoichiometry N (crystal structure [1]) | stoichiometry N (crystal structure [2]) | Kd [3] [nM]
B1 | 4 | 2 | 
B2 |  |  | ~125
B3 |  | 2 | 

From publication PMC5291321 (Science (New York, N.Y.), 2016)
